According to the DeepSol protein solubility set:

Assay: soluble on expression in E. coli; label from the status in PepcDB or PDB records

Sequence | soluble on expression in E. coli
MKIGFIGAGKMAQALARGLINSGRITADNIIASSPKRDEVFLDQCKALGLNTTHDNAEVVQKSDVVFLAVKPVHVSKVASEIAPALSKEHLVVSIALGITIRNIESLLPTKSRVVRVMPNTPSVVRAGASAFAMGSACRDGDAETVEKLLSTVGFAVEVPEIHIDPVTGLSGSGPSYMFAVIEGLADGGVKVGLPRDLALKLAAYTLLGAAKMVLETGIHPAQLKDDVQSPAGSSVYGMHKLESGGLKGVLMDAVEAATNRSRATGDKALPRDFRNTEM | not soluble
GSMKTIKVKNKTEGSKVAFRMLEEEITFGAKTLGLATGSTPLELYKEIRESHLDFSDMVSINLDEYVGLSADDKQSYAYFMKQNLFAAKPFKKSYLPNGLAADLAKETEYYDQILAQYPIDLQILGIGRNAHIGFNEPGTAFSSQTHLVDLTPSTIAANSRFFEKAEDVPKQAISMGLASIMSAKMILLMAFGEEKAEAVAAMVKGPVTEEIPASILQTHPKVILIVDEKAGAGI | soluble
MGSDKIHHHHHHMYPGCRLCINIGDQFARSVYYGRYKVIPIRTEIIKFCETMGFDYMGAIIWQKVTTTNTTGGATIMGSFPYPRNGILKLDYEFILFFKKQGNAPKPTREQKERSVISKEDWNTYFSGHWYFSGVKQEGHIAMFPEELPARLIKMFAFVGDTVLDPFLGSGTTSMAARNLERNSIGYEINQDFIPAIRQKLNVCQMDIHGAEYSFLEDSATIDCEQEIEKLPYVFKDPHKLDKKIDPKKLLFGSKIDRNSADREEYFSVKEVISPEVIRLSNGLLIRLMGVRENTAMNGLAVNFITEKTKGQKIFLKFDLQKHDSQNRLLCYVYLKNKTFLNAHLIKEGLAIVDRSVDFRYKDKFMKLEAQCG | not soluble
MSLAHAQMEMPPRSLGAVIEQAEAQEAPILLEVYAPWCPYCQRMQENVYADAEVRSYLDRRFTYARLNRDTTGGTHRFNGRTLSSKELGMALGARGVPTTVFMKPDGTPIAKQPGYIKRPVFLQMLRYFGSGAYEEQSFEAFRARASEGHHHHHH | not soluble
MGQGAPLFADKGGEIAALMRGAYFVAHNVDFDLPFLQAELERAGWPPFAGPTIDTVELARIVLPTAESYKLGDLARQLGLRHDRPHQADSDAEVTAKLFIALLKRLSRLPLMTLEQLRGLARHLKSDIYLLLDAVIAKKRNKAPADRAVAVYRGIALKQPAPEPDESDRRPALASFAAFCEQEPPLPLPGYKRRAGQWEMMRLVYEALSTSQHALIEAGTGLGKSLAYLIPAAFFACEQQERVVISTHTLQLQEQLIRRDWPVLRQIAPFPLRVAVLKGKQNYLSLDKFASFLSEPSDTYDAALLKCQVLVWLLETDSGDLDELNVSSGARLLLSALAIGEEEDGGRHHFFARAKERSERADVVITNHALLLHDLTGPAPLLPPFRHLIIDEAHRLEDAAARCFGEQIGYVSFRLLTAKIAQTIAKWQEAEQDAPNGALVRCQQRLEELQFEGDELFRLLRRYALDKKPARAGRCRYRFSPTDEQSRAWQAAVELCWRLRDLAAALSAEAKPLLSADTSGDFPPSALLSADLAALNRQMAALVRLLTEKEPGVVRWIEADEKGAANAVRLYSQPVDLADFFADQLFMKKRSVVLTSATLTVRGRFTYMAARLGLEDFYPLCRSFPPPFRYEEQAALFVPADMPLVSAVPLEDYAEAVAASVLAIARRLGRRVLVLFPSYELLKLTVDALKTEEEGEPFVLIAQGVQSGSPAKLLRTFLQFEHAVLFGTSSFWEGVDLPGSALDVLVIARLPFAPPDDPVMEAKSERIRLEGGDPFSELALPEAVLRFKQGFGRLIRTEDDKGAVFVLDRRLMASPYGADFLASLPPLSVHEGALSELLDKAETWLS | not soluble
MSSIQGYKMKEYSMPTKRYCQTLSLKNNPILIEEYRKIHSEEKAWPEIRAGIRAVGILEMEIYILGSQLFMIIETPLDFDWEIAMDKLSNLPRQAEWEKYVSKFQDCPYLSSSAEKWKLMERMFYLYED | not soluble
MFRREIQERENWRELARQFGFGFHSMYGQPYWDESAYYQFTLEQIEHDLESPTEELHQMCLSIVDEVVRCEQLLTKCAIPELMWEQVASSWQRKEPSLYSRLDFAYNGTSPAKLLENNADTPTSLFETGFWQWVWLEDVVNKGRIHQAADQFNILQDFLIERFAEIAKYQPGQTLHFSCCKYTEEDKATVQYLEDCAREVGLATAFVYVEDIGVTEDGKFVDVDRRAIRWMFKLYPWEFMFEEEYAKYLATANVNWLEPMWKSILSNKALLPLLWERFPNHPNLLPAYFANDPNASCLNDYVIKPLFSREGANIEIVKDGKRLVKTPGPYESKFNIVQKYHPLPKFGQNHTLIGSWLVNDRAAGISIREDSSLVTQDMARYIPHVILT | not soluble
MAGLLKESMRIKMYMEGTVNGHYFKCEGEGDGNPFAGTQSMRIHVTEGAPLPFAFDILAPCCESRTFVHHTAEIPDFFKQSFPEGFTWERTTTYEDGGILTAHQDTSLEGNCLIYKVKVHGTNFPADGPVMKNKSGGWEPSTEVVYPENGVLCGRNVMALKVGDRHLICHHYTSYRSKKAVRALTMPGFHFTDIRLQMLRKKKDEYFELYEASVARYSDLPEKAN | soluble
MSLSENPIASVRLLRLQREEASLQQYRDNIGALKSQLTKNETLLDGISANLRDARDLLVAAANQPPTDDLKAMASPLVSLRDSILYAANTKDSEGRYMFSGSAVNNAAIVVDDTQPAGSRYRYNGNGDRQRVTVGEGVTEASNVTLESMAPLLNQLDKAIATLQSPTLDSKDPAVGATIREVMGGVDTALDRVGGTISELGGAQNVLKTLDGNHDSLSLANQESIIELGSLDYGTAYIAMNNLSMALQTSQKAYGKVSQLTLFDVIEGHHHHHH | soluble
MLILGHPLIPSARFVFIKNTDAIHSNTNNDIVCFEAHPKNLELAKYCCENSVHFSVIFLSHKIETDTFFLFNAFKPLYCIFKDIKQAILAQQHATNYLLDSKILFFMDLNDTELWEICAKSQIDGVISKDSLLLK | soluble
MSLNAIARQEPFDLNDPALRARAVAAARGDAPFDMLITGGRLLDAVTGLIREADIGLVGALIASVHAPASRTDAVEIIDATGGILTPGLIDMHMHVESSMVTPAEYASAVLPHGVTTVVWDPHEFGNVQGLDGVRWAIEAARTLPLRMILLAPSCVPSAPGLELAGADFDAAVIAEMLRSPAVGGVAEVMNMRGVIDGDPRMSAIVNSGLASGKLVCGHARGLTGADLNAFMAAGVTSDHELTSGADLAAKLSAGLTIELRGSHDHLLQEFVEVLNGLGHLPATVTLCTDDVFPDELYQSGGLDEVARRLVRYGMKPEWALRAATFNAAQRLKRSDLGLVASGRRADLVLFEDLTELRARLVISDGRIVARNGSMEAAVQPLDTAPLINSTKLPPLTESDFRVPAKGARVRIATIDRPRFTQWGEAETEIRDGFVVPPAGSAMIAVAHRHGKAGGTPRIGFLTGWGEWRGAFCTTVSHDSHNLTVFGGDARDMALAANAVIKAGGGLAVAKDGAIQAILPLPLSGLVTDASLKDTASAFSDIRKAMDKIVDWKPPYRVFKACFGATLACNAGPHQTDRGIADVTTGKVLESPVLEIEGHHHHHH | soluble
MKPPICRRMSLPPVLAKKEGERIQVPEGGELVCYRNQEDQHLFLKIEYSRETMIKLSSSVFCYARPTGLKEVSDELPELLGLPHSIPLTDSPPNFECLPEPLAHVSGCNSHFSMNHPPPLLSPLRGPVTEADEAMRTLSSHRELQKRLQNMSMRGELSPSGCLVDSCDTPAIRQIRNPQFT | not soluble
MGSDKIHHHHHHMQLHLTDDRFNTDPYWTERIKSTFACPPKEVVSMFDQNGYDLTKLEQLYAVANGAETTKHRNSSHITLRQDWFTADDTEYGPHINHAYMFERKGYSGDALAQLEAWSYYRPHFHKLIAMRPKWGLDFSIDYCDREGNVFELLHWEYDGFDHNEVADKKEKMDEFLVNQDWDERARTMLERKNEWHKLGFFEQSEWKTEFFGIEKERFKMVLWK | not soluble
MGSDKIHHHHHHMDIDRTILVQIQGLLVFESPLHHDERGYFLENWRKKDLLANGVPESFFHHKLQNNVSVSKQGVIRGMHCQGYEKLMTVAYGTFKMIFIDLRIDSPTYKSVDVIDVQPGRAVFVPGGVANGAQSLVNNGILNYLVADYYDPHKNYLGITPLDKDANLSWDSLLKPIISEKDQAAKSFKEVLEIIESSKKKVALIGSTGAVGKVLFDTLRKQSDIDLSCFNRNNIEEALKDFYDMVICTAPSSEKLLTNLSLKNDDAEIEKLVNVLKNIQTGHMILVSTKSVFDSGARYSAIHQKIYNSVIEAHQNSNTIYIMDTLYGKTLKKGFINDLLSRQWTYISNDIVLDKPELENYYQKVNDQLWSLVEPLPNELLSTLEPISDIYPDEMCYQVTAINDLVSHLMANLNRIDGVKLGIDKSEIFTGRQIKNLLKNPDNSTLGRYFKKQEGDFNLENL | not soluble
MGSDKIHHHHHHMPLTMNKDVFITCAVTGSGSTQDRSPHVPRSPKQIAESAIEAARAGAAIVHCHVRDPESGAPSRDLSYYREVTDRIREADIDVVLNLTAGMGGDITFGSTDAPFPVDEAGTDMVGAAERVAHIADCLPEICTLDCGTMNFAEADYVMTNTPGMLRAMGRMMTDLGVKPEIEAFDTGHLWFAKELVKEGVLDSPALVQLCMGVPWGAPDDLNTFMAMVNNVPDNWTFSAFALGRNEMAYVAASVLAGGNVRVGLEDNLWLEKGVLATNAQLVEQAVGIIEGMGARVIGPDMVRETLGLTKQAPA | not soluble
MGSDKIHHHHHHMEKIKGKNTVNCEICLHNSKTRPMFKHEGKNICIECLNALKFPRNFEEMKNEVMDYLDELRIRNNKYNCILGFSGGKDSVVALYLLVKELRIRPLCVTVDNGYLAEEALTNCKNVAKYFGVDWLVINKDFTKFFKETISKGESPCRVCSDMNMHELWQFARQTNIDTIVTGHELPFGTTAIRGMKKGINMLRLLVAYKLTEEDRYNILKEIPWEKPDLGGYTTNCLVLAPALVEFKKKHGFSFEYDRVSAMIRYGLMTREEAEEALKCPEVSDEIYEELKKRGLDFKNLKE | not soluble
MSLTLEDIARKLNISKNAVSLALANKPGVSEKTRQLVFQTAKELGYKFKEKEEQKGTIALIMTKNIIEDPYFFSAIVYSVENEIRKEGYDFSLYCISSEDEWNIEEILTSSSFEGIIIVSAISENVIKKIEEKKIPTVVIDNLVDSTCIDTVNTDNYRSTKAAIEYLIKQGFKHIGFIGDVNHAISYRERWEGFMAAHEEFDIEIDKKVCKIEGFKDFSKNPEPEIQAFLKSLEKMPQAFFCVSDLSTLLTASVLKEMGFQIPKDVSIVGFDDIELVKHFKPALSMIHIDRNYYGQRAVKQLLERIKCPNKPVEDVRIFCRLNIRKSIRAEGHHHHHH | not soluble
MGGDMHEITLCQRALELIEQQAAKHGAKRVTGVWLKIGAFSCVETSSLAFCFDLVCRGSVAEGCKLHLEEQEAECWCETCQQYVTLLTQRVRRCPQCHGDMLQIVADDGLQIRRIEIDQE | not soluble
AQKSVKISDDISITQLSDKVYTYVSLAEIEGWGMVPSNGMIVINNHQAALLDTPINDAQTEMLVNWVTDSLHAKVTTFIPNHWHGDCIGGLGYLQRKGVQSYANQMTIDLAKEKGLPVPEHGFTDSLTVSLDGMPLQCYYLGGGHATDNIVVWLPTENILFGGCMLKDNQATSIGNISDADVTAWPKTLDKVKAKFPSARYVVPGHGDYGGTELIEHTKQIVNQYIESTSKP | soluble
MSLGNSRSRVGRSFCSQFLPEEQAEIDQLFDALSSDKNSPNVSSKSFSLKALQNHVGEALPPEMVTRLYDGMRRVDLTGKAKGPSENVSQEQFTASMSHLLKGNSEEKSLMIMKMISATEGPVKAREVQKFTEDLVGSVVHVLSHRQELRGWTGKEAPGPNPRVQVLAAQLLSDMKLQDGKRLLGPQWLDYDCDRAVIEDWVFRVPHVAIFLSVVICKGFLVLCSSLDLTTLVPERQVDQGRGFESILDVLSVMYINAQLPREQRHRWRLLFSSVLHGHSFSQLCGHITHRGPCVAVLEDHDKHVFGGFASCSWEVKPQFQGDNRCFLFSICPSMAVYTHTGYNDHYMYLNHGQQTIPNGLGMGGQHNYFGLWVDVDFGKGHSRAKPTCTTYNSPQLSAQENFQFDKMEVWAVGDPSEEQLAKGNKSILDADPEAQALLEISGHSRHSEGLREVPDDEGHHHHHH | soluble
